This note sets out measurements from IntAct's records for PubMed 31515488.

The labels stand for the following.
B1: Trichoplein keratin filament-binding protein (Homo sapiens), Q9BT92 (parent)
chain: MALPTLPSYWCSQQRLNQQLARQREQEARLRQQWEQNSRYFRMSDICSSKQAEWSSKTSYQRSMHAYQREKMKEEKRRSLEARREKLRQLMQEEQDLLARELEELRLSMNLQERRIREQHGKLKSAKEEQRKLIAEQLLYEHWKKNNPKLREMELDLHQKHVVNSWEMQKEEKKQQEATAEQENKRYENEYERARREALERMKAEEERRQLEDKLQAEALLQQMEELKLKEVEATKLKKEQENLLKQRWELERLEEERKQMEAFRQKAELGRFLRHQYNAQLSRRTQQIQEELEADRRILQALLEKEDESQRLHLARREQVMADVAWMKQAIEEQLQLERAREAELQMLLREEAKEMWEKREAEWARERSARDRLMSEVLTGRQQQIQEKIEQNRRAQEESLKHREQLIRNLEEVRELARREKEESEKLKSARKQELEAQVAERRLQAWEADQQEEEEEEEARRVEQLSDALLQQEAETMAEQGYRPKPYGHPKIAWN
partner: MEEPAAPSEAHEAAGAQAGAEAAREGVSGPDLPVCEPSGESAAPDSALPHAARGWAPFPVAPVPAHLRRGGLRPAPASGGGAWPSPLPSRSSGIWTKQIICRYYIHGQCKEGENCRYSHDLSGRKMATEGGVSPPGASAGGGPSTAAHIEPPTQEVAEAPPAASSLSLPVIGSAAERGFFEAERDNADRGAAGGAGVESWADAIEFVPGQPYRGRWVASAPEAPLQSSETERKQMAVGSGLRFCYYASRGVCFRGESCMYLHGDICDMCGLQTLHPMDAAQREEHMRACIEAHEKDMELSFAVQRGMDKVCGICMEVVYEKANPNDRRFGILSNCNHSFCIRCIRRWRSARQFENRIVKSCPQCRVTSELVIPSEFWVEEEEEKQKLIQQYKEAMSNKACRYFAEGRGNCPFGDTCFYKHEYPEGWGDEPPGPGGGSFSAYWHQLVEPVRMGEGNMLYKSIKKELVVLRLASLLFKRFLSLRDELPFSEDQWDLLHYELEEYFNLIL
B2: Cyclin-D1-binding protein 1 (Homo sapiens), O95273 (parent)
chain: MASATAPAAAVPTLASPLEQLRHLAEELRLLLPRVRVGEAQETTEEFNREMFWRRLNEAAVTVSREATTLTIVFSQLPLPSPQETQKFCEQVHAAIKAFIAVYYLLPKDQGITLRKLVRGATLDIVDGMAQLMEVLSVTPTQSPENNDLISYNSVWVACQQMPQIPRDNKAAALLMLTKNVDFVKDAHEEMEQAVEECDPYSGLLNDTEENNSDNHNHEDDVLGFPSNQDLYWSEDDQELIIPCLALVRASKACLKKIRMLVAENGKKDQVAQLDDIVDISDEISPSVDDLALSIYPPMCHLTVRINSAKLVSVLKKALEITKASHVTPQPEDSWIPLLINAIDHCMNRIKELTQSELEL
partner: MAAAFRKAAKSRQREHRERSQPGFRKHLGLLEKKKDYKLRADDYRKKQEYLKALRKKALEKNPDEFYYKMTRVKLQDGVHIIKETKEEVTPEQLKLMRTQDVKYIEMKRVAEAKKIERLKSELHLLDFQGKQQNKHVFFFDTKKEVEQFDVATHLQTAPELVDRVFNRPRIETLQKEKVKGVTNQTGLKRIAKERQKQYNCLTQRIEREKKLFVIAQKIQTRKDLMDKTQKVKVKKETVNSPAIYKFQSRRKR
B3: Protein sprouty homolog 1 (Homo sapiens), O43609 (parent)
chain: MDPQNQHGSGSSLVVIQQPSLDSRQRLDYEREIQPTAILSLDQIKAIRGSNEYTEGPSVVKRPAPRTAPRQEKHERTHEIIPINVNNNYEHRHTSHLGHAVLPSNARGPILSRSTSTGSAASSGSNSSASSEQGLLGRSPPTRPVPGHRSERAIRTQPKQLIVDDLKGSLKEDLTQHKFICEQCGKCKCGECTAPRTLPSCLACNRQCLCSAESMVEYGTCMCLVKGIFYHCSNDDEGDSYSDNPCSCSQSHCCSRYLCMGAMSLFLPCLLCYPPAKGCLKLCRRCYDWIHRPGCRCKNSNTVYCKLESCPSRGQGKPS
partner: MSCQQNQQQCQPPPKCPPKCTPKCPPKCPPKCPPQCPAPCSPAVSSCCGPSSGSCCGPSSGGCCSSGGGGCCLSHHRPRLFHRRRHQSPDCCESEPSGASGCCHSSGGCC

One experiment covers variants of B1. As to conditions: with mkrn3_human MKRN3, Q13064.
With MALPTLPSYWCSQQRLNQQLARQREQEARLRQQWEQNSRYFRMSDICSSKQAEWSSKTSYQRSMHAYQREKMKEEKRRSLEARREKLRQLMQEEQDLLARELEELRLSMNLQERRIREQHGKLKSAKEEQRKLIAEQLLYEHWKKNNPKLREMELDLHQKHVVNSWEMQKEEKKQQEATAEQENKRYENEYERARREALERMKAEEERRQLEDKLQAEALLQQMEELKLKEVEATKLKKEQENLLKQRWELERLEEERKQMEAFRQKAELGRFLRHQYNAQLSRRTQQIQEELEADRRILQALLEKEDESQRLHLARREQVMADVAWMKQAIEEQLQLERAREAELQMLLREEAKEMWEKREAEWARERSARDRLMSEVLTGRQQQIQEKIEQNRRAQEESLKHREQLIRNLEEVRKLARREKEESEKLKSARKQELEAQVAERRLQAWEADQQEEEEEEEARRVEQLSDALLQQEAETMAEQGYRPKPYGHPKIAWN [E417K], the “effect of a mutation on the interaction” value is on record as “with no effect”. Take MALPTLPSYWCSQQRLNQQLARQREQEARLRQQWEQNSRYFRMSDICSSKQAEWSSKTSYQRSMHAYQREKMKEEKRRSLEARREKLRQLMQEEQDLLARELEELRLSMNLQERRIREQHGKLKSAREEQRKLIAEQLLYEHWKKNNPKLREMELDLHQKHVVNSWEMQKEEKKQQEATAEQENKRYENEYERARREALERMKAEEERRQLEDKLQAEALLQQMEELKLKEVEATKLKKEQENLLKQRWELERLEEERKQMEAFRQKAELGRFLRHQYNAQLSRRTQQIQEELEADRRILQALLEKEDESQRLHLARREQVMADVAWMKQAIEEQLQLERAREAELQMLLREEAKEMWEKREAEWARERSARDRLMSEVLTGRQQQIQEKIEQNRRAQEESLKHREQLIRNLEEVRELARREKEESEKLKSARKQELEAQVAERRLQAWEADQQEEEEEEEARRVEQLSDALLQQEAETMAEQGYRPKPYGHPKIAWN [K127R]: the “effect of a mutation on the interaction” value is on record as “with no effect”.

Variants of B2 are the subject of another experiment. To be noted: with utp11_human UTP11, Q9Y3A2.
As to MASATAPAAAVPTLASPLEQLRHLAEELRLLLPRVRVGEAQETTEEFNREMFWRRLNEAAVTVSREATTLTIVFSQLPLPSPQETQKFCEQVHAAIKAFIAVYYLLPKDQGITLRKLVRGATLDIVDGMAQLMEVLSVTPTQSPENNDLISYNSVWVACQQMPQIPRDNKAAALLMLTKNVDFVKDAHEEMEQAVEECDPYSGLLNDTEENNSDNHNHEDDVLGFPSNQDLYWSEDDQELIIPCLALVRASKACLKKIRMLVAENGKKDQVAQLDDTVDISDEISPSVDDLALSIYPPMCHLTVRINSAKLVSVLKKALEITKASHVTPQPEDSWIPLLINAIDHCMNRIKELTQSELEL [I277T], the “effect of a mutation on the interaction” value is “disrupting interaction strength”.

The next experiment covers variants of B3. To be noted: with lce2d_human LCE2D.
For the variant MDPQNQHGSGSSLVVIQQPSLDSRQRLDYEREIQPTAILSLDQIKAIRGSNEYTEGPSVVKRPAPRTAPRQEKHERTHEIIPINVNNNYEHRHTSHLGHAVLPSNARGPILSRSTSTGSAASSGSNSSASSEQGLLGRSPPTRPVPGHRSERAIRTQPKQLIVDDLKGSLKEDLTQHKFICEQCGKCKCGECTAPRTLPSCLACNRQCLCSAESMVEYGTCMCLVKGIFYHCSNDDEGDSYSDNPCSCSQSHCCSRYLCMGAMSLFLPCLLCYPPAKGCLKLCRRCYDWIHRPGCKCKNSNTVYCKLESCPSRGQGKPS [R296K], the “effect of a mutation on the interaction” value is “with no effect”. For the variant MDPQNQHGSGSSLVVIQQPSLDSHQRLDYEREIQPTAILSLDQIKAIRGSNEYTEGPSVVKRPAPRTAPRQEKHERTHEIIPINVNNNYEHRHTSHLGHAVLPSNARGPILSRSTSTGSAASSGSNSSASSEQGLLGRSPPTRPVPGHRSERAIRTQPKQLIVDDLKGSLKEDLTQHKFICEQCGKCKCGECTAPRTLPSCLACNRQCLCSAESMVEYGTCMCLVKGIFYHCSNDDEGDSYSDNPCSCSQSHCCSRYLCMGAMSLFLPCLLCYPPAKGCLKLCRRCYDWIHRPGCRCKNSNTVYCKLESCPSRGQGKPS [R24H], the “effect of a mutation on the interaction” value was “with no effect”. As to MDPQNQHGSGSSLVVIQQPSLDSRQRLDYEREIQPTTILSLDQIKAIRGSNEYTEGPSVVKRPAPRTAPRQEKHERTHEIIPINVNNNYEHRHTSHLGHAVLPSNARGPILSRSTSTGSAASSGSNSSASSEQGLLGRSPPTRPVPGHRSERAIRTQPKQLIVDDLKGSLKEDLTQHKFICEQCGKCKCGECTAPRTLPSCLACNRQCLCSAESMVEYGTCMCLVKGIFYHCSNDDEGDSYSDNPCSCSQSHCCSRYLCMGAMSLFLPCLLCYPPAKGCLKLCRRCYDWIHRPGCRCKNSNTVYCKLESCPSRGQGKPS [A37T], the “effect of a mutation on the interaction” value is “with no effect”.
